This is an account of results in PMC6884549, “Alkyladenine DNA glycosylase associates with transcription elongation to coordinate DNA repair with gene expression” (Nature Communications, 2019).

First the molecules themselves.
B1: FLAG-tagged ELP1, purified recombinant (natural protein, human, UniProt O95163 1-1332, looked up)
chain: MRNLKLFRTLEFRDIQGPGNPQCFSLRTEQGTVLIGSEHGLIEVDPVSREVKNEVSLVAEGFLPEDGSGRIVGVQDLLDQESVCVATASGDVILCSLSTQQLECVGSVASGISVMSWSPDQELVLLATGQQTLIMMTKDFEPILEQQIHQDDFGESKFITVGWGRKETQFHGSEGRQAAFQMQMHESALPWDDHRPQVTWRGDGQFFAVSVVCPETGARKVRVWNREFALQSTSEPVAGLGPALAWKPSGSLIASTQDKPNQQDIVFFEKNGLLHGHFTLPFLKDEVKVNDLLWNADSSVLAVWLEDLQREESSIPKTCVQLWTVGNYHWYLKQSLSFSTCGKSKIVSLMWDPVTPYRLHVLCQGWHYLAYDWHWTTDRSVGDNSSDLSNVAVIDGNRVLVTVFRQTVVPPPMCTYQLLFPHPVNQVTFLAHPQKSNDLAVLDASNQISVYKCGDCPSADPTVKLGAVGGSGFKVCLRTPHLEKRYKIQFENNEDQDVNPLKLGLLTWIEEDVFLAVSHSEFSPRSVIHHLTAASSEMDEEHGQLNVSSSAAVDGVIISLCCNSKTKSVVLQLADGQIFKYLWESPSLAIKPWKNSGGFPVRFPYPCTQTELAMIGEEECVLGLTDRCRFFINDIEVASNITSFAVYDEFLLLTTHSHTCQCFCLRDASFKTLQAGLSSNHVSHGEVLRKVERGSRIVTVVPQDTKLVLQMPRGNLEVVHHRALVLAQIRKWLDKLMFKEAFECMRKLRINLNLIYDHNPKVFLGNVETFIKQIDSVNHINLFFTELKEEDVTKTMYPAPVTSSVYLSRDPDGNKIDLVCDAMRAVMESINPHKYCLSILTSHVKKTTPELEIVLQKVHELQGNAPSDPDAVSAEEALKYLLHLVDVNELYDHSLGTYDFDLVLMVAEKSQKDPKEYLPFLNTLKKMETNYQRFTIDKYLKRYEKAIGHLSKCGPEYFPECLNLIKDKNLYNEALKLYSPSSQQYQDISIAYGEHLMQEHMYEPAGLMFARCGAHEKALSAFLTCGNWKQALCVAAQLNFTKDQLVGLGRTLAGKLVEQRKHIDAAMVLEECAQDYEEAVLLLLEGAAWEEALRLVYKYNRLDIIETNVKPSILEAQKNYMAFLDSQTATFSRHKKRLLVVRELKEQAQQAGLDDEVPHGQESDLFSETSSVVSGSEMSGKYSHSNSRISARSSKNRRKAERKKHSLKEGSPLEDLALLEALSEVVQNTENLKDEVYHILKVLFLFEFDEQGRELQKAFEDTLQLMERSLPEIWTLTYQQNSATPVLGPNSTANSIMASYQQQKTSVPVLDAELFIPPKINRRTQWKLSLLD
notes: ELP1 (IKBKAP), cDNA excised from pCMV6-XL5-ELP1 (OriGene) and inserted into pcDNA3.1(+)-3xFLAG; Seen as a dimer after BS3 cross-linking; Purified in one step from human cells, so other Elongator subunits might be present (my surmise); also called FLAG-ELP1; ELP1 dimer
B2: AAG lacking 80 N-terminal amino acids, purified recombinant (domain or fragment, human, UniProt P29372 81-298, looked up)
chain: GHLTRLGLEFFDQPAVPLARAFLGQVLVRRLPNGTELRGRIVETEAYLGPEDEAAHSRGGRQTPRNRGMFMKPGTLYVYIIYGMYFCMNISSQGDGACVLLRALEPLEGLETMRQLRSTLRKGTASRVLKDRELCSGPSKLCQALAINKSFDQRDLAQDEAVWLERGPLEPSEPAVVAAARVGVGHAGEWARKPLRFYVRGSPWVSVVDRVAEQDTQA
notes: Alkyladenine DNA glycosylase (AAG, MPG), human, lacking the first 80 N-terminal amino acids; also called Δ80 AAG; ∆80AAG

Series [1] deals with the molecule itself. Nature of the series: cross-linking; 10 µM of purified proteins in 0.1 M sodium phosphate, 0.15 M NaCl, pH 7.4, 30 min at RT; BS3 at 0, 0.1 and 0.5 mM for 1 h at 4 °C; gel shift read by immunoblot; single proteins with the highest amount of BS3 as controls. For orientation: In EMSA bound probe runs differently from free probe, usually more slowly.
Series [2] addresses B1. Briefly: co-IP; purified proteins: 1 µg of protein with 1 µg of antibody overnight at 4 °C in 200 µl IP buffer (20 mM HEPES pH 7.9, 140 mM NaCl, 0.01% NP-40), Protein-A sepharose beads, immunoblot. The conditions noted are these: both partners purified. (In general: In western blotting, separated proteins are transferred to a membrane and probed.)

Consider B1, for which, in series [1], the “stoichiometry N” value came out at 2.

Turning to B2, in series [2], the binding result is given as “binds”.

By stoichiometry N is commonly meant a count of units in the complex or per binding partner.
